Data: US20210214430A1 (Regeneron, published 2021)

B1: mAb2 (a mouse anti-VEGFR1 mAb human IgG1) (antibody, V domains shown)
VH: EVQLVESGGDLVKPGGSLKLSCAASGFTFSDSGMSWVRQTPDKRLEWVATISSGGGYTYYSDSVEGRFTISRDNANNTLFLQMSSLKSEDTAMFYCARLGNYGGYYGMDYWGQGTSVTVSS
VL: DIQMTQSPSSLSASLGGKVTITCKTSQDSNKYIAWYQHKPGKGPRLLIHYTSTLQPGIPSRFSGSGSGRDYSFSISNLEPEDIATYYCLQYDNLWTFGGGTKLEIKR
notes: also called column 3
B2: mAb3 (a mouse anti-VEGFR1 mAb mouse IgG1) (antibody)
heavy: EVQLVESGGDLVKPGGSLKLSCAASGFTFSSSGMSWVRQTPDKRLEWVATITSGGSYTYYPDSVKGRFTISRDNAKNTLYLQMSSLKSEDTAMFYCARLGNYGGYYAMDYWGQGTSVTVSSAKTTPPSVYPLAPGSAAQTNSMVTLGCLVKGYFPEPVTVTWNSGSLSSGVHTFPAVLQSDLYTLSSSVTVPSSTWPSETVTCNVAHPASSTKVDKKIVPRDCGCKPCICTVPEVSSVFIFPPKPKDVLTITLTPKVTCVVVDISKDDPEVQFSWFVDDVEVHTAQTQPREEQFNSTFRSVSELPIMHQDWLNGKEFKCRVNSAAFPAPIEKTISKTKGRPKAPQVYTIPPPKEQMAKDKVSLTCMITDFFPEDITVEWQWNGQPAENYKNTQPIMDTDGSYFVYSKLNVQKSNWEAGNTFTCSVLHEGLHNHHTEKSLSHSPGK
light: DIQMTQSPSSLSASLGGKVTITCTTSQDSNNYIAWYQHKPGKGPRLLIHYASTLQPGIPSRFSGSGSGRDYSFSISNLEPEDIATYFCLQYDYLWTFGGGTKLELKRADAAPTVSIFPPSSEQLTSGGASVVCFLNNFYPKDINVKWKIDGSERQNGVLNSWTDQDSKDSTYSMSSTLTLTKDEYERHNSYTCEATHKTSTSPIVKSFNRGEC
notes: also called column 4
B3: mAb1 (a mouse anti-VEGFR1 mAb human IgG1) (antibody)
heavy: not shown
light: DIQMTQSPSSLSASLGGKVTITCTTSQDSNNYIAWYQHKPGKGPRLLIHYASTLQPGIPSRFSGSGSGRDYSFSISNLEPEDIATYFCLQYDYLWTFGGGTKLELKRTVAAPSVFIFPPSDEQLKSGTASVVCLLNNFYPREAKVQWKVDNALQSGNSQESVTEQDSKDSTYSLSSTLTLSKADYEKHKVYACEVTHQGLSSPVTKSFNRGEC
notes: Also amine-coupled to the Biacore chip to capture MT5
B4: recombinant VEGF MiniTrap (dimer) MT5 (receptor)
chain: SDTGRPFVEMYSEIPEIIHMTEGRELVIPCRVTSPNITVTLKKFPLDTLIPDGKRIIWDSRKGFIISNATYKEIGLLTCEATVNGHLYKTNYLTHRQTNTIIDVVLSPSHGIELSVGEKLVLNCTARTELNVGIDFNWEYPSSKHQHKKLVNRDLKTQSGSEMKKFLSTLTIDGVTRSDQGLYTCAASSGLMTKKNSTFVRVHEKDKTHTCPPCPAPELLG
notes: also called VEGF MiniTrap 5

Experiments:
[1] = biological target: B4; experiment: affinity chromatography on immobilized mAb2, low-pH eluate on non-reducing SDS-PAGE
Procedure: (§1) The column was activated by washing the columns with 6 column volumes (CV) of 1 mM ice-cold hydrochloric acid at a flow rate not exceeding 1 mL/min. […] The columns were washed with 18 column volumes of 0.5 M sodium acetate, 0.5 M NaCl, pH 4.0 and the open sites were blocked with 18 column volumes of 0.5 M Tris-HCl, 0.5 M NaCl pH 8.3 (the wash was carried out in the following order: 6 column volumes of 0.5 M Tris-HCl, 0.5 M NaCl, pH 8.3; 6 column volumes of 0.5 M sodium acetate (sodium acetate: JT Baker, Cat #3470-01), 0.5 M NaCl, pH 4.0; 6 column volumes of 0.5 M Tris, pH 8.3; incubate the column for 30 minutes at room temperature; 6 column volumes of 0.5 M sodium acetate buffer, 0.5 M NaCl pH 4.0; 6 column volumes of 0.5 M Tris-HCl, 0.5 NaCl, pH 8.3 and 6 column volumes of 0.5 M sodium acetate buffer, 0.5 M NaCl pH 4.0). The columns were stored in DPBS, pH 7.5. The five columns evaluated are designated as column 1 (comprising VEGF₁₆₅), column 2 (comprising mAb1), column 3 (comprising mAb2), column 4 (comprising mAb3) and column 5 (comprising mAb4).
(§2) SDS-PAGE analysis of the eluted fractions from the three columns (column 1, column 2, and column 3) was performed. […]

[2] = biological target: B4; experiment: affinity chromatography, antibody coupled to HiTrap NHS-activated column (column 4)
[3] = biological target: B4; experiment: affinity chromatography on immobilized mAb1, low-pH eluate on non-reducing SDS-PAGE
Procedure: as §1, §2

[4] = biological target: T1, VEGF165 (human, UniProt P15692 207-395); experiment: SPR, Biacore T200, 25 C; MT5 captured on amine-coupled mAb1, VEGF165 injected at 0.03-2 nM; 1:1 Langmuir fit; conditions: loading solution before affinity chromatography
T1 construct: also called hVEGF165
Procedure: All binding studies were performed in 10 mM HEPES, 150 mM NaCl, 3 mM EDTA, and 0.05% v/v Surfactant Tween-20, pH 7.4 (HBS-ET) running buffer at 25° C. The Biacore sensor surface was first derivitized by amine coupling with a mAb 1 to capture MT5.
Briefly, the eluates from the columns and loading solution were diluted into an HBS-EP (Biacore) buffer and injected across the immobilized protein matrices at a capture level of ˜70 RUs. The VEGF₁₆₅ was then injected at a flow rate of 50 μL/min. Equivalent concentration of analyte was simultaneously injected over an untreated reference surface to serve as blank sensorgrams for subtraction of bulk refractive index background. The sensor chip surface was regenerated between cycles with two 5-min injections of 10 mM Glycine, at 25 μL/min. The resultant experimental binding sensorgrams were then evaluated using the BIA evaluation 4.0.1 software to determine kinetic rate parameters. Datasets for each sample were fit to the 1:1 Langmuir model. For these studies, binding and dissociation data were analyzed under the Global Fit Analysis protocol while selecting fit locally for maximum analyte binding capacity (RU) or Rmax attribute. In this case, the software calculated a single dissociation constant (kd), association constant (ka), and affinity constant (Kd). The equilibrium dissociation constant is KD=kd/ka. […] The dissociative half-lives (t½) were calculated from the kinetic rate constants as: t_{1/2}=ln(2)/60*[…]. Binding kinetic parameters for MT5 to VEGF₁₆₅ obtained from before and after the affinity chromatography production at 25° C. are shown in Table 7-6.

T1 sequence (P15692 other isoform, or with tags, fused parts or gaps limits assumed): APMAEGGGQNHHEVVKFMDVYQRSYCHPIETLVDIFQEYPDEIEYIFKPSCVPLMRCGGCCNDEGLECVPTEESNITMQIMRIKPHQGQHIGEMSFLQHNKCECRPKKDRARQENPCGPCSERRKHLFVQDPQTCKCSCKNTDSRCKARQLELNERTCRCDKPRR

Binder: B1
binding result [1]: binds

Binder: B2
binding result [2]: binds

Binder: B3
binding result [3]: binds

Binder: B4
Kd [4]: 1.84 pM
koff [4]: 1.74e-05 s⁻¹
kon [4]: 9.44e+06 M⁻¹ s⁻¹
t1/2 (dissociative half-life) [4]: 11.1 h
